Measured values: patent US20160230173A1

Biological target: T1, Wild-type glucocorticoid receptor, Myc-DDK tagged NR3C1 (Origene catalog # RC220189), substrate of the CASP1 enzymatic assay
T1 chain: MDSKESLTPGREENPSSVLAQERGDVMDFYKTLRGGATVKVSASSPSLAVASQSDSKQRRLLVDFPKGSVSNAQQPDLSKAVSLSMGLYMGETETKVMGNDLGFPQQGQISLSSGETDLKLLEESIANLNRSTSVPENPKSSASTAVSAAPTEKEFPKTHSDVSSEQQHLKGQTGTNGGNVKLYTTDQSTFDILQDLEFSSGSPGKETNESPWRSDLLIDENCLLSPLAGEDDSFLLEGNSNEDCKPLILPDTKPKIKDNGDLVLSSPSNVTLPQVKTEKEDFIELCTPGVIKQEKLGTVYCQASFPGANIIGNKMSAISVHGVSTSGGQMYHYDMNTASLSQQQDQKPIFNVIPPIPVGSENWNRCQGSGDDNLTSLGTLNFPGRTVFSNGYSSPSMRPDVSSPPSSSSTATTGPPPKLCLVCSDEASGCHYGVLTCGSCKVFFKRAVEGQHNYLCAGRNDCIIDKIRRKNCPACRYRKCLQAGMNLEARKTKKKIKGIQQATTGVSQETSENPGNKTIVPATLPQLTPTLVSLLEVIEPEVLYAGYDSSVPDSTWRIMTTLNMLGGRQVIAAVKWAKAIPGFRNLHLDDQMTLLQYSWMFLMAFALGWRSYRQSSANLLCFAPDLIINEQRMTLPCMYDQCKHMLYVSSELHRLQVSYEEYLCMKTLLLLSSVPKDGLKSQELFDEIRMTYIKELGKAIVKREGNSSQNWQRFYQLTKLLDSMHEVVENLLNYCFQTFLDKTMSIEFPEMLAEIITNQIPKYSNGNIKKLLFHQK

B1: Recombinant human CASP1 (Enzo Life Sciences CASP1 assay kit for drug discovery, catalog number BML-AK701-0001) (protein)
chain: NPAMPTSSGSEGNVKLCSLEEAQRIWKQKSAEIYPIMDKSSRTRLALIICNEEFDSIPRRTGAEVDITGMTMLLQNLGYSVDVKKNLTASDMTTELEAFAHRPEHKTSDSTFLVFMSHGIREGICGKKHSEQVPDILQLNAIFNMLNTKNCPSLKDKPKVIIIQACRGDSPGVVWFKDSVGVSGNLSLPTTEEFEDDAIKKAHIEKDFIAFCSSTPDNVSWRHPTMGSVFIGRLIEHMQEYACSCDVEEIFRKVRFSFEQPDGRAQMPTTERVTLTRCFYLFPGH
- cleavage of GR in CASP1 enzymatic assay (western blot): enzymatic assays were performed that revealed glucocorticoid receptor (NR3C1) cleavage by recombinant CASP1
